The values below come from patent US8470780B2, “Methods and compositions related to targeting wounds, regenerating tissue, and tumors” (Sanford-Burnham Medical Research Institute, priority 2006, dated 2013).

One assay has as its system CHO-K cells. Briefly: CHO-K cell proliferation with decorins. In kind it is cell-based, Chinese hamster. The note with it: 0.3 μg/ml/day of decorins. The procedure: The effect of decorin preparations on CHO-K cell proliferation was determined as described previously (Yamaguchi 1990; Yamaguchi 1988). The cells were grown in media containing fetal bovine serum that had been dialyzed in a dialysis cassette (Pierce, Rockford, Ill.). The cells were plated in duplicate at a density of 2×10^4 cells per well in 24-well plates and cultured in 600 μl of culture media. Half of the medium was replaced daily with fresh medium containing decorin. Cells were collected by trypsinization, washed and resuspended in 1 ml of PBS containing 2 μg/ml of propidium iodide (PI) and 20,000 CountBright counting beads (Invitrogen, Carlsbad, Calif.), and analyzed by counting 1,000 beads in FACS. Cell number was also determined by hemocytometer.

Assay [1] deals with full thickness skin wounds. Briefly: Accumulation of intravenously injected decorins in wound tissue (anti-6-histidine tag staining). The assay is classed as in vivo, mice. The note with it: daily intravenous injections Days 3-5; evaluated Day 5. The procedure: Mice with full thickness skin wounds, received daily intravenous injections as indicated on Days 3-5 after the wounding (n=4 per group, 2 wounds per animal). On Day 5, the presence of decorins was evaluated with anti-6-histidine tag antibody (which stains brown) by examining two sections from each wound.
Six 8-week-old male BALB/c mice were anesthetized with intraperitoneally-injected 2.5% avertin Skin was shaved, cleaned, and disinfected with betadine and 70% alcohol. All animal experiments received approval from the IACUC of Burnham Institute for Medical Research. Treatment trials were conducted on mice that had circular, 8 mm-diameter, full thickness (including panniculus carnosus muscle) excision wounds in the dorsal skin. […]
(§1) The treatments were started three days after wounding and consisted of daily tail vein injections. […] The ratio was reversed from Day 7 based on previously determined homing profiles of CRK and CAR phage to wounds at different time-points. The wounds were inspected and photographed daily, and scored for complete re-epithelialization. […]
Frozen sections were fixed in acetone for 10 min and pre-incubated with 0.5% blocking reagent for 1 hr (NEN Life Sciences, Boston, Mass.). […] The primary antibodies were detected with corresponding secondary antibodies, and each staining experiment included slides stained with species-matched immunoglobulins as negative controls. […]

Assay [2] relates to full thickness excision wounds in the dorsal skin. As to the kind of experiment: Skin wound healing treatment with decorins. In kind it is in vivo, mice. The procedure: Next, the effect of the homing peptide decorins on wound healing was examined. The daily dose of 40 μg/day was chosen based on previous decorin studies (Seidler 2006; Yang 1999). The dose was doubled on Days 4-6, coincident with the peak in TGF-β expression in wounds (Brunner 2004; Yang 1999). The treatments were started on Day 3 after wounding, when granulation tissue first forms in wounds (Brunner 2004), and continued for 7,9, or 11 days in three independent treatment experiments. Several parameters commonly used to assess wound repair and scarring were measured (Ashcroft 1999; Cheon 2006; Shah 1995). […]
as §1
Image analysis and quantification of granulation tissue/wound area, and hyperproliferative epidermis were done using ImageJ program (NIH, Bethesda, […].). The wounds were cut in the middle, one section from each side of the wound was evaluated, and the average of these two values was used in the analysis. The length of hyperproliferative epidermis and size of the wound tissue were determined from the Masson trichrome stained tissue sections. […]

B1: decorin: recombinant his-tagged human decorin, small leucine-rich chondroitin sulfate proteoglycan (protein, UniProt P07585 31-359, looked up)
Decorin: DEASGIGPEVPDDRDFEPSLGPVCPFRCQCHLRVVQCSDLGLDKVPKDLPPDTTLLDLQNNKITEIKDGDFKNLKNLHALILVNNKISKVSPGAFTPLVKLERLYLSKNQLKELPEKMPKTLQELRAHENEITKVRKVTFNGLNQMIVIELGTNPLKSSGIENGAFQGMKKLSYIRIADTNITSIPQGLPPSLTELHLDGNKISRVDAASLKGLNNLAKLGLSFNSISAVDNGSLANTPHLRELHLDNNKLTRVPGGLAEHKYIQVVYLHNNNISVVGSSDFCPPGHNTKKASYSGVSLFSNPVQYWEIQPSTFRCVYVRSAIQLGNYK
modifications: His-tag
notes: recombinant his-tagged human decorin, small leucine-rich chondroitin sulfate proteoglycan
On to B1, for which the “inhibition of CHO-K cell proliferation” value in the assay on CHO-K cells is recorded as “inhibited the proliferation of the CHO-K cells at high concentrations”. Moreover, in assay [1], the “decorin staining in skeletal muscle underlying the skin wounds” value is recorded as “No decorin-staining” and the “decorin staining in wounds” value is listed as “weakly positive for decorin staining”. Moreover, in assay [2] (Day 14 after wounding), the “change in granulation tissue/scar area” value is on record as “no statistically significant changes”. In addition, the “prevention of scar formation” value in assay [2] (equivalent doses) was “inactive”.
